The data set in a line: protein stability index of a GFP-peptide fusion (GPS, HEK-293T) (PSI 1-6); higher = more stable.
Setting [1] is: treatment: DMSO, c terminus: a fixed tail appended.
[2] abbreviates: treatment: MLN4924 1 uM, 8 h, c terminus: a fixed tail appended.

± gives the standard deviation.
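Note: 24-mer peptide tiles fused after GFP, lentivirally expressed, FACS-sorted into six equal bins by GFP/DsRed ratio, decoded by Illumina sequencing, PSI is the read-weighted mean bin number.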

KEEVRAALEQREQDAVDQVKVIMD [TRIM29]: the protein stability index is, setting by setting: under setting [1], 5.23 ± 0.36; under setting [2], 5.39 ± 0.13.
The matching figures for KENEMMKSHVMDQAINNAINYLGA [IKZF1]: 3.24 ± 0.089 and 2.87 ± 0.3.
As to KERLKPAHIHLQQLTCFSITCSST [KRT34], the protein stability index is 2.1 ± 0.34 under setting [1] and 2.49 ± 0.22 under setting [2].
Taken in the same sequence, the figures for KGFIQKGNLNIHQRTHTGEKPYGC [ZNF649] were 3.67 ± 0.14 and 3.68 ± 0.2.
The matching figures for KGKLFTWNILKTIALGQMLSLCIC [SLC35F2]: 2.62 ± 0.89 and 2.57 ± 0.57.
As to KGNREDSARMSAGLPGPEAARSGD [PLEKHN1], the protein stability index under setting [1] stood at 5.41 ± 0.39 and the protein stability index under setting [2] worked out at 5.39 ± 0.41.
The matching figures for KGSPDVSASSDEPYARIQQSRRQC [SMIM2]: 4.74 ± 0.18 and 5.02 ± 0.2.
Consider KGTILYLQKDEYRPDKALSEGDLK [PSD2], for which the protein stability index runs as follows: under setting [1], 3.99 ± 0.21; under setting [2], 4.04 ± 0.18.
Taken in the same sequence, the figures for KHKRQMQDPQLHSPFSGSLHAPPA [VENTX] were 3.98 ± 0.28 and 3.83 ± 0.25.
With KIIFRVGLVLLKHALGSPEKVKAC [TBC1D10A], the protein stability index is 2.77 ± 0.43 under setting [1] and 2.76 ± 0.19 under setting [2].
Taken in the same sequence, the figures for KIRKIHTQRQYKEDESQSEEENDY [CEP70] were 5.14 ± 0.21 and 5.16 ± 0.18.
Take KISGGPHISYPPLHEWVLREGEE [MAGEA3]: the protein stability index is, setting by setting: (treatment: DMSO, c terminus: native) 2.92 ± 0.62; (treatment: MLN4924 1 uM, 8 h, c terminus: native) 3.33 ± 0.43.
In the case of KIYDSPCLPEAEAMFAINADGVGD [RAD51], the protein stability index reads like this: under setting [1], 4.71 ± 0.19; under setting [2], 4.65 ± 0.38.
Taken in the same sequence, the figures for KKAQGKTQQNRKLTDFYPVRRSSR [KMT5A] were 3.29 ± 0.54 and 3.86 ± 0.39.
Regarding KKMEQNKTAATRYRQKKRAEQEAL [ATF4], the protein stability index came out at 4.48 ± 0.52 under setting [1] and 4.55 ± 0.33 under setting [2].
The matching figures for KKRLQELALALKKCKPSLPAEAEG [TMEM120A]: 3.62 ± 0.48 and 3.34 ± 0.36.
Taken in the same sequence, the figures for KKWQQYRSVRRERLKEMKLLRDQF [FAM9B] were 2.59 ± 0.27 and 2.71 ± 0.2.
For the sequence KLAQALHEMREQHDAQVRLYKEEL [LMNB1], the protein stability index runs as follows: under setting [1], 2.66 ± 0.3; under setting [2], 2.7 ± 0.22.
The matching figures for KLQLQLNETKSQAFVSNSPKLFCP [PLD5]: 2.87 ± 0.075 and 2.95 ± 0.6.
Consider KNGRVDSEDRRSRHCPYLDTINRS [USP39], for which the protein stability index is, setting by setting: under setting [1], 3.99 ± 0.26; under setting [2], 4.2 ± 0.34.
The matching figures for KNHEEEMLALRGQTGGDVNVEMDA [KRT16]: 5.46 ± 0.17 and 5.6 ± 0.22.
Take KPARKRRRRSRKKPSGALGSESYK [EHMT1]: the protein stability index came to 5.11 ± 0.27 under setting [1] and 5.28 ± 0.14 under setting [2].
The matching figures for KQQKDPSEEAAVLQYASLVGQKCS [ATE1]: 4.84 ± 0.23 and 4.77 ± 0.2.
Taken in the same sequence, the figures for KRFQTLISKMEPLEIPVETITSEV [CRY1] were 3.27 ± 0.25 and 3.5 ± 0.39.
As to KRIAHFDLKPENIMLLDKNVPNPR [DAPK3], the protein stability index runs as follows: under setting [1], 3.68 ± 0.44; under setting [2], 3.25 ± 0.77.
Consider KRPAPRTAPRQEKHERTHEIIPIN [SPRY1], for which the protein stability index came to 4.03 ± 0.18 under setting [1] and 4.2 ± 0.15 under setting [2].
With KRRRKETSECPSDKDKSPESHKAK [C10orf62], the protein stability index under setting [1] is 5.34 ± 0.27 and the protein stability index under setting [2] came to 5.42 ± 0.21.
With KSEEELAECFRIFDRNADGYIDPE [TNNC2], the protein stability index under setting [1] is 4.8 ± 0.52 and the protein stability index under setting [2] stood at 5.29 ± 0.43.
The matching figures for KSFSMAKGLNARMMRGLSYSLTTS [RAB40A]: 2.35 ± 0.13 and 2.56 ± 0.25.
As to KSPLHMTAVHGRFTRSQTLIQNGG [ANKRD44], the protein stability index under setting [1] came out at 3.28 ± 0.24 and the protein stability index under setting [2] is 3.45 ± 0.18.
The matching figures for KSRRSRSESETSTMAAKKNRQSSD [C18orf25]: 5.47 ± 0.15 and 5.53 ± 0.25.
The matching figures for KTIDLGAAAHYTGDKASPDQNAST [CLINT1]: 5.26 ± 0.31 and 5.41 ± 0.49.
The matching figures for KTKAPAPDEGSDLFYDDYYEDGEV [CDC34]: 5.35 ± 0.31 and 5.38 ± 0.29.
On to KVLGNRWAEIAKMLPGRTDNAVKN [MYBL2], for which the protein stability index reads like this: under setting [1], 2.91 ± 0.45; under setting [2], 2.98 ± 0.24.
For KVLILRNHGLVSVGESVEEAFYYI [ADD1], the protein stability index under setting [1] stood at 2.63 ± 0.53 and the protein stability index under setting [2] amounted to 2.72 ± 0.67.
The matching figures for KYLKLQDTCRTQLVWLVRELVKSG [INTS3]: 2.94 ± 0.82 and 2.6 ± 0.83.
The matching figures for LAAAPEGLEDAGLDPHFVPTELWP [TEX19]: 4.06 ± 0.11 and 4.19 ± 0.24.
On to LAAKERHCGELKRRLGLSTLGELK [TPD52L2], for which the protein stability index is, setting by setting: under setting [1], 2.85 ± 0.32; under setting [2], 3.02 ± 0.33.
Taken in the same sequence, the figures for LAGQFLEELRKFSSLCYKQRIKSQ [MOG] were 2.17 ± 0.27 and 2.14 ± 0.38.
Taken in the same sequence, the figures for LALALKKCKPSLPAEAEGAAQELE [TMEM120A] were 4.39 ± 0.18 and 4.46 ± 0.19.
The matching figures for LALCPANHAPLREQGAIPRLVQLL [CTNNB1]: 2.39 ± 0.21 and 2.59 ± 0.21.
Turning to LAMLALLSPLSLAQYDSWPHYPEY [LOXL2], the protein stability index was 3.22 ± 0.32 under setting [1] and 3.46 ± 0.16 under setting [2].
The matching figures for LASGLVVFFLFPHSVLVDDDGIKV [TMEM106C]: 2.92 ± 0.48 and 2.86 ± 0.49.
Taken in the same sequence, the figures for LCAPEVISLINTRMLFWACSTNKP [FAF2] were 3.04 ± 0.47 and 2.88 ± 0.41.
The matching figures for LCEEFRNRNQRIVQLIQDTRIHIL [CPN1]: 2.25 ± 0.13 and 2.4 ± 0.26.
Regarding LCQKSNDISIHHFTCDEENVFAAV [WDR41], the protein stability index reads like this: under setting [1], 2.84 ± 0.18; under setting [2], 2.91 ± 0.31.
With LCVILYKKVHKGTVPKNDADDESE [GLT8D2], the protein stability index was 2.02 ± 0.15 under setting [1] and 2.31 ± 0.1 under setting [2].
As to LDEALKHVKETQPPETVQNWIELL [GOLPH3], the protein stability index came out at 3.94 ± 0.18 under setting [1] and 4.17 ± 0.24 under setting [2].
The matching figures for LEDMGQPPAEEAEQPGALAREFLA [FKBP8]: 5.15 ± 0.19 and 5.38 ± 0.2.
Taken in the same sequence, the figures for LELLDKIERSKIVSTMRCKTRQKS [PPEF2] were 3.54 ± 0.43 and 3.73 ± 0.074.
The matching figures for LELTVRRVQGVLRGRAREREQLQA [HES6]: 3.7 ± 0.45 and 3.64 ± 0.43.
LENSKYCRFNQDPEAVDEDRSTEP [ATE1]: the protein stability index reads like this: under setting [1], 5.5 ± 0.24; under setting [2], 5.29 ± 0.45.
Turning to LFDLMRRMLEFDPAQRITLAEALL [CLK3], the protein stability index runs as follows: under setting [1], 2.05 ± 0.6; under setting [2], 2.19 ± 0.11.
For LFEEILSNSRQLKWLSCGFMLEIV [FBXO33], the protein stability index amounted to 3.02 ± 0.69 under setting [1] and 2.79 ± 0.57 under setting [2].
The matching figures for LGGFSHWGRLTSYSGGGYYLDLPG [PKD2L1]: 2.47 ± 0.19 and 2.74 ± 0.25.
For the sequence LGNVLFSPICLSTSLSLAQVGAKG [SERPINB5], the protein stability index by setting is: under setting [1], 2.48 ± 0.2; under setting [2], 2.12 ± 0.23.
As to LGPLLSEPLVLYNQNLSNRPSFNR [MYOZ1], the protein stability index was 2.62 ± 0.13 under setting [1] and 2.95 ± 0.49 under setting [2].
Taken in the same sequence, the figures for LGSGPDRELRKPEEPENGEPTAAA [PWWP2B] were 5.52 ± 0.18 and 5.25 ± 0.47.
The matching figures for LGSGQFAIVRKCRQKGTGKEYAAK [DAPK3]: 3.55 ± 0.52 and 3.48 ± 0.16.
As to LGVAQRSLPLQDELAFAEDLVLDE [ESRRA], the protein stability index by setting is: under setting [1], 3.38 ± 0.65; under setting [2], 3.93 ± 0.71.
For the sequence LHLPIMGVVMKVRIPTCHDKPGTT [DENND6A], the protein stability index reads like this: under setting [1], 2.24 ± 0.31; under setting [2], 2.25 ± 0.19.
In the case of LHSLPGVSLSLENRELWKEFSSVG [TBX6], the protein stability index is 2.73 ± 0.19 under setting [1] and 2.83 ± 0.37 under setting [2].
Taken in the same sequence, the figures for LHVAARYGHELLINTLITSGADTA [ANKRD44] were 2.52 ± 0.28 and 2.44 ± 0.72.
The matching figures for LIHVYLPLTSHILRAFVNSQIQGH [SNX8]: 3.2 ± 0.27 and 3.19 ± 0.52.
The matching figures for LIISCRKLFYFKIWAFLDVSFVER [FBXO39]: 3.43 ± 0.47 and 2.9 ± 0.099.
As for LINTIRVVCASYEDYGHWLLCLRA [PLEKHN1], the protein stability index runs as follows: under setting [1], 2.76 ± 0.89; under setting [2], 2.43 ± 0.41.
The matching figures for LIRGSTFAKAKPEIPWTSLTRKGL [PHTF1]: 2.25 ± 0.17 and 2.41 ± 0.31.
For LISSGMSSHKQGHTSSEYDMLREM [TAF7L], the protein stability index is, setting by setting: under setting [1], 3.75 ± 0.23; under setting [2], 3.84 ± 0.19.
Consider LLAAQVQLQCSPAELQAELLHSQA [FBF1], for which the protein stability index is, setting by setting: under setting [1], 2.56 ± 0.26; under setting [2], 2.42 ± 0.45.
LLHLHQTAHADEFDCPSELQHTQE [STEAP1]: the protein stability index came to 4.66 ± 0.11 under setting [1] and 4.78 ± 0.11 under setting [2].
As for LLIEGRSVNEHTEEGESLLCLACS [ANKRD17], the protein stability index reads like this: under setting [1], 3.22 ± 0.6; under setting [2], 3.27 ± 0.91.
Taken in the same sequence, the figures for LLIPKEDGVITASEDRTIRVWLKR [WDFY1] were 2.42 ± 0.34 and 2.7 ± 0.51.

(Values after the supplement of paper PMC10567573.)
